For assay [1], the target named is FN1–FN3 region of zebrafish CNTN4 (zebrafish). Kind of assay: BLI; biotinylated zebrafish CNTN4(FN1–FN3) immobilised on streptavidin sensors, E1 domains of zebrafish APPb or APLP2 in solution; Octet K2; KD from the signal at equilibrium.
The target in assay [2] is FN1-FN3 domains of zebrafish CNTN4, biotinylated (zebrafish). Put plainly: BLI; Octet K2; biotinylated FN1-FN3 domains of zebrafish CNTN4 immobilised on streptavidin sensors, E1 domains of zebrafish APPb or APLP2 in solution; average constants of the kinetic fit.
Assay [3] shares this target. Kind of assay: BLI; Octet K2; biotinylated FN1-FN3 domains of zebrafish CNTN4 immobilised on streptavidin sensors, E1 domains of zebrafish APPb or APLP2 in solution; steady state KD from the maximal signal at equilibrium against concentration. (In BLI a coated tip is dipped into the sample, and binding shifts an interference pattern.)
Assay [4] addresses E1 domain of chicken APP, biotinylated (chicken). Kind of assay: BLI; BLItz; biotinylated amyloid E1 domain ([…] nM) immobilised on streptavidin tips, CNTN FN1-FN3 in solution; room temperature; 150 mM NaCl, 10 mM Na-Hepes pH 7.5, 1 mg/ml BSA, 0.02% Tween-20; average constants of the kinetic fit (the paper says koff attained or exceeded the accuracy limits of the instruments).
Assay [5] shares this target. Put plainly: BLI; BLItz; biotinylated amyloid E1 domain ([…] nM) immobilised on streptavidin tips, CNTN FN1-FN3 in solution; room temperature; 150 mM NaCl, 10 mM Na-Hepes pH 7.5, 1 mg/ml BSA, 0.02% Tween-20; steady state KD from the maximal signal at equilibrium against concentration.
The target of assay [6] is E1 domain of chicken APLP2, biotinylated (chicken). Put plainly: BLI; BLItz; biotinylated amyloid E1 domain ([…] nM) immobilised on streptavidin tips, CNTN FN1-FN3 in solution; room temperature; 150 mM NaCl, 10 mM Na-Hepes pH 7.5, 1 mg/ml BSA, 0.02% Tween-20; average constants of the kinetic fit (the paper says koff attained or exceeded the accuracy limits of the instruments).

Assay [7] concerns the target E1 domain of human APP, biotinylated (human) (UniProt P05067). The assay is described as above.
Assay [8] concerns the target E1 domain of human APLP1, biotinylated (human) (UniProt P51693). The assay is described as above.
Assay [9] addresses E1 domain of human APP, biotinylated (human) (UniProt P05067). Put plainly: BLI; BLItz; biotinylated amyloid E1 domain ([…] nM) immobilised on streptavidin tips, CNTN FN1-FN3 in solution; room temperature; 150 mM NaCl, 10 mM Na-Hepes pH 7.5, 1 mg/ml BSA, 0.02% Tween-20; steady state KD from the maximal signal at equilibrium against concentration.
Assay [10] deals with E1 domain of human APLP1, biotinylated (human) (UniProt P51693). The assay is described as above.
Assay [11] addresses E1 domain of human APLP2, biotinylated (human) (UniProt Q06481). Put plainly: BLI; BLItz; biotinylated amyloid E1 domain ([…] nM) immobilised on streptavidin tips, CNTN FN1-FN3 in solution; room temperature; 150 mM NaCl, 10 mM Na-Hepes pH 7.5, 1 mg/ml BSA, 0.02% Tween-20; average constants of the kinetic fit (the paper says koff attained or exceeded the accuracy limits of the instruments).

For assay [12] the target is unchanged. Put plainly: BLI; BLItz; biotinylated amyloid E1 domain ([…] nM) immobilised on streptavidin tips, CNTN FN1-FN3 in solution; room temperature; 150 mM NaCl, 10 mM Na-Hepes pH 7.5, 1 mg/ml BSA, 0.02% Tween-20; steady state KD from the maximal signal at equilibrium against concentration.
Assay [13] addresses E1 domain of mouse APP, biotinylated (mouse) (UniProt P12023). Put plainly: BLI; BLItz; biotinylated amyloid E1 domain ([…] nM) immobilised on streptavidin tips, CNTN FN1-FN3 in solution; room temperature; 150 mM NaCl, 10 mM Na-Hepes pH 7.5, 1 mg/ml BSA, 0.02% Tween-20; average constants of the kinetic fit (the paper says koff attained or exceeded the accuracy limits of the instruments).

For assay [14], the target named is E1 domain of zebrafish APPb, biotinylated (zebrafish). Described as above.
Assay [15] has as its target E1 domain of chicken APLP2 (chicken). Kind of assay: BLI; biotinylated E1 domain ([…] nM) immobilised on streptavidin tips, CNTN FN1–FN3 in solution; room temperature; 150 mM NaCl, 10 mM Na-Hepes pH 7.5, 1 mg/ml BSA, 0.02% Tween-20; BLItz or Octet K2; KD from the signal at equilibrium.
Assay [16] deals with E1 domain of chicken APP (chicken). The assay is described as above.
The target in assay [17] is E1 domain of zebrafish APPb (zebrafish). The description is as above.
Assay [18] addresses extracellular region of amyloid precursor protein (APP) fused to human IgG1 Fc or to FcYTS (UniProt P12023). Put plainly: AlphaScreen or HTRF; ectodomain-FcYTS on Strep-Tactin donor beads and ectodomain-Fc on protein A acceptor beads; dialysed HEK293 conditioned media; both tag orientations; 1 h at room temperature; 150 mM NaCl, 20 mM Na-Hepes pH 7.5, 2 mM CaCl2, 2 mM MgCl2, BSA, Triton X-100, Tween-20; a pair counts with signal over background of at least two in each orientation. For orientation: In Alpha technology, singlet oxygen from a donor bead excites a nearby acceptor bead.

16 substances from article PMC8808184 can be followed below.

Chain of FN1-FN3 region of mouse CNTN3 (Q07409 20-1002): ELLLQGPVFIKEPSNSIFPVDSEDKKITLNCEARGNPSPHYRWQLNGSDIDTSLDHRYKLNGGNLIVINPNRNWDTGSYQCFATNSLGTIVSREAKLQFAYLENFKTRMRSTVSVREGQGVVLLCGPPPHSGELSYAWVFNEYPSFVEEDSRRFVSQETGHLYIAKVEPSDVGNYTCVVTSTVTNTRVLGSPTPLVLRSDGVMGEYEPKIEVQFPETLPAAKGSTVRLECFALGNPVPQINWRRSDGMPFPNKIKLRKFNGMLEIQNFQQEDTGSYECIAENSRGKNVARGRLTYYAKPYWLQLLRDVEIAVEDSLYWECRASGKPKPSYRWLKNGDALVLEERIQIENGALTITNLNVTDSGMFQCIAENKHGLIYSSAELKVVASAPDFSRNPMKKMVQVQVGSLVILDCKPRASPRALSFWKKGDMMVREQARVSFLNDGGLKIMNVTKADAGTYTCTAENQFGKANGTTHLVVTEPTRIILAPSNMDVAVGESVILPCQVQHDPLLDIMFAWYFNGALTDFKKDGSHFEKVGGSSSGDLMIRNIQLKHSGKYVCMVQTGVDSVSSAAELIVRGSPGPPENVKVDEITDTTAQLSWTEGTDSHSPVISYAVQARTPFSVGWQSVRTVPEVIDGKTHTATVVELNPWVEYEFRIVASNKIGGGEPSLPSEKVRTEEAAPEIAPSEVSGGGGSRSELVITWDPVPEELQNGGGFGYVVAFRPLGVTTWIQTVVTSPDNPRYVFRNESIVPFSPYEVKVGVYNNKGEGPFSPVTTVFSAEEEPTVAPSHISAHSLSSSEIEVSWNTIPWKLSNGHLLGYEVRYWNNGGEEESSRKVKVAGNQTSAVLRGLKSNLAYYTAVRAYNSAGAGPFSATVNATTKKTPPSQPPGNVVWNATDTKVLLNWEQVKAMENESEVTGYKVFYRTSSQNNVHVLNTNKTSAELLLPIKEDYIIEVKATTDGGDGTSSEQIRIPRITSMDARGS
Chain of E1 domain of human APLP1, biotinylated (human) (P51693 50-212): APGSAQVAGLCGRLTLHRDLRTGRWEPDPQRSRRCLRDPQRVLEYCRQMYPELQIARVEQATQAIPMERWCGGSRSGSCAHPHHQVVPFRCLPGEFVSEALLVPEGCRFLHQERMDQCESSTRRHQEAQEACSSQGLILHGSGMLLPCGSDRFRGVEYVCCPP
Chain of E1 domain of human APLP2, biotinylated (human) (Q06481 46-205): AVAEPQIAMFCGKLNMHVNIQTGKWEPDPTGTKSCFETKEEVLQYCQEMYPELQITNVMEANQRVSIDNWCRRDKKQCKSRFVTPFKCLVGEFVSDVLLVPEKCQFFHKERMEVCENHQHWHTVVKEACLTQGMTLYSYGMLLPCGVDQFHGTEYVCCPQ
Chain of ectodomain of contactin 4 (CNTN4) fused to human IgG1 Fc or to FcYTS (Q69Z26 19-1000): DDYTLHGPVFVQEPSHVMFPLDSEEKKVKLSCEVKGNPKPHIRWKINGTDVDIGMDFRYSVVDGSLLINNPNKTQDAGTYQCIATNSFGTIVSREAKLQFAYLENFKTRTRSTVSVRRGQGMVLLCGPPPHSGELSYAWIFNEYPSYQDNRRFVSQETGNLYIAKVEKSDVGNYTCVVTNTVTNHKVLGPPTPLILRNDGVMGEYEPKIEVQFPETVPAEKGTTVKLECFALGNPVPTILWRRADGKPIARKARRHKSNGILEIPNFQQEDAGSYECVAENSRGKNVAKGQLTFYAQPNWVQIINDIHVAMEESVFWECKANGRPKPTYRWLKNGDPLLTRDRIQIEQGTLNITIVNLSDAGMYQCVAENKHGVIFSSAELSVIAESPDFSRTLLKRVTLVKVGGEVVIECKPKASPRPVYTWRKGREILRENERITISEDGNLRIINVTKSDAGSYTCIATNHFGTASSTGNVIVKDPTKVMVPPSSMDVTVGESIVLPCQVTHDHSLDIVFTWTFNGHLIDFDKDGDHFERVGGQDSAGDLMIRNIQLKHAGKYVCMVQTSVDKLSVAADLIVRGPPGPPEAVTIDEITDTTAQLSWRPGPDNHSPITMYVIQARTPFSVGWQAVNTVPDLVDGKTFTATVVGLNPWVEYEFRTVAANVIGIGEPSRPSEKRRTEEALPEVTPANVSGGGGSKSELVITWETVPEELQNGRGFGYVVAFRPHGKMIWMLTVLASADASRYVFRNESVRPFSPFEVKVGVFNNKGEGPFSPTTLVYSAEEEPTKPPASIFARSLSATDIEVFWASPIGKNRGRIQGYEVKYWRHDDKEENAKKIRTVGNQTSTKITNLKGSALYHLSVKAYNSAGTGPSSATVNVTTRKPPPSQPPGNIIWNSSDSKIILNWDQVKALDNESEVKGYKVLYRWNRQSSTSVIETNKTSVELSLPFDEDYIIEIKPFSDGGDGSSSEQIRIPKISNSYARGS

In the case of “E1 domain of zebrafish APLP2 (domain or fragment)”, in assay [1], the Kd came to 21.4 µM.

A word on the koff: it is the rate constant with which the complex falls apart. Broadly, the kon is the second-order rate constant of association. In assay [2], “E1 domain of zebrafish APPb (domain or fragment)” yielded a Kd of 0.11 µM, a koff of 0.03 s⁻¹ and a kon of 170000 M⁻¹ s⁻¹. Also, the Kd in assay [1] worked out at 0.4 µM. The same substance came in with a Kd in assay [3] of 0.401 µM.

As to “FN1-FN3 region of chicken CNTN3 (domain or fragment)”, in assay [4], the Kd was 182 µM, the koff is 0.9 s⁻¹ and the kon came to 7250 M⁻¹ s⁻¹. Also, in [5], the Kd was found to be 46.8 µM.

In [6], “FN1-FN3 region of chicken CNTN4 (domain or fragment)” returned a Kd of 26.6 µM, a koff of 0.33 s⁻¹ and a kon of 21600 M⁻¹ s⁻¹. In assay [4], this substance had a Kd of 8.2 µM, a koff of 0.19 s⁻¹ and a kon of 33900 M⁻¹ s⁻¹.

In assay [4], “FN1-FN3 region of chicken CNTN4 T751A, V752A (domain or fragment)” returned a Kd of 441 µM, an off-rate (koff) of 0.38 s⁻¹ and a kon of 10300 M⁻¹ s⁻¹. In assay [5], the Kd is 20.9 µM.

In assay [4], “FN1-FN3 region of chicken CNTN4 Y781A, E786A (domain or fragment)” registered a Kd of 330 µM, a koff of 0.59 s⁻¹ and a kon of 5450 M⁻¹ s⁻¹. For the same substance, in [5], the Kd turned out to be 115 µM.

With “FN1-FN3 region of human CNTN3 (from UniProt Q9P232 20-1002) (domain or fragment)”, the Kd in [7] came out at 403 µM; in assay [8] it was 4.5 µM; in [9] it was 63.3 µM; in assay [10] it was 9.1 µM. For the same substance, the figures for the koff in assay [7] and in [8] were 0.79 s⁻¹ and 0.1 s⁻¹, respectively. Also, the figures for the kon in assay [7] and in [8] were 2560 M⁻¹ s⁻¹ and 2190 M⁻¹ s⁻¹, respectively.

For “FN1-FN3 region of human CNTN4 (from UniProt Q8IWV2 19-1000) (domain or fragment)”, the Kd in assay [7] was found to be 18.7 µM; in [8], 0.4 µM; in assay [11], 4.8 µM; in [9], 8 µM; in assay [10], 1.5 µM. In addition, the koff in assay [7] amounted to 0.33 s⁻¹; in [8], 0.03 s⁻¹; in assay [11], 0.2 s⁻¹. The on-rate constant (kon) is 19200 M⁻¹ s⁻¹ in assay [7], 64500 M⁻¹ s⁻¹ in assay [8] and 43000 M⁻¹ s⁻¹ in assay [11].

Consider “FN1-FN3 region of human CNTN5 (from UniProt O94779 19-1072) (domain or fragment)”, for which the Kd in assay [8] came to 9.8 µM; in assay [11], 36.6 µM; in assay [10] it was 10.9 µM; in assay [12], 38.6 µM. In addition, the koff came out at 0.17 s⁻¹ in assay [8] and 0.37 s⁻¹ in assay [11]. In addition, the kon in [8] was determined as 17700 M⁻¹ s⁻¹; in [11], 9440 M⁻¹ s⁻¹.

In assay [13], “FN1-FN3 region of mouse CNTN3 (from UniProt Q07409 20-1002) (domain or fragment)” returned a Kd of 2.9 µM, a koff of 0.15 s⁻¹ and a kon of 56200 M⁻¹ s⁻¹.

In assay [14], “FN1-FN3 region of zebrafish CNTN5 (domain or fragment)” showed a Kd of 64.4 µM, a koff of 0.59 s⁻¹ and an on-rate constant (kon) of 9560 M⁻¹ s⁻¹.

In the case of “FN1–FN3 region of chicken CNTN4 (domain or fragment)”, the Kd in assay [15] is 28.2 µM; in assay [16], 5.4 µM.

In assay [16], “FN1–FN3 region of chicken CNTN4, T751A and V752A (domain or fragment)” had a fold reduction in affinity against wild-type chicken CNTN4 of 4 fold.

“FN1–FN3 region of chicken CNTN4, Y781A and E786A (domain or fragment)” returned a Kd in assay [16] of 115 µM.

For “FN1–FN3 region of zebrafish CNTN5 (domain or fragment)”, the Kd in assay [17] is 26.8 µM.

In assay [18], “ectodomain of contactin 4 (CNTN4) fused to human IgG1 Fc or to FcYTS (from UniProt Q69Z26 19-1000) (Fc fusion)” registered a luminescent signal of 1.56e+06 and a luminescent signal divided by the signal of APP-FcYTS with Fc only of 848.
